Laboratory results: patent US20240025984A1 (FLUX THERAPEUTICS, published 2024)
Each block holds one binder with its values, some of them ahead of it.

Biological target: T1, SYNGAP1-nanoluc-alfa-tag-fusion
T1 chain: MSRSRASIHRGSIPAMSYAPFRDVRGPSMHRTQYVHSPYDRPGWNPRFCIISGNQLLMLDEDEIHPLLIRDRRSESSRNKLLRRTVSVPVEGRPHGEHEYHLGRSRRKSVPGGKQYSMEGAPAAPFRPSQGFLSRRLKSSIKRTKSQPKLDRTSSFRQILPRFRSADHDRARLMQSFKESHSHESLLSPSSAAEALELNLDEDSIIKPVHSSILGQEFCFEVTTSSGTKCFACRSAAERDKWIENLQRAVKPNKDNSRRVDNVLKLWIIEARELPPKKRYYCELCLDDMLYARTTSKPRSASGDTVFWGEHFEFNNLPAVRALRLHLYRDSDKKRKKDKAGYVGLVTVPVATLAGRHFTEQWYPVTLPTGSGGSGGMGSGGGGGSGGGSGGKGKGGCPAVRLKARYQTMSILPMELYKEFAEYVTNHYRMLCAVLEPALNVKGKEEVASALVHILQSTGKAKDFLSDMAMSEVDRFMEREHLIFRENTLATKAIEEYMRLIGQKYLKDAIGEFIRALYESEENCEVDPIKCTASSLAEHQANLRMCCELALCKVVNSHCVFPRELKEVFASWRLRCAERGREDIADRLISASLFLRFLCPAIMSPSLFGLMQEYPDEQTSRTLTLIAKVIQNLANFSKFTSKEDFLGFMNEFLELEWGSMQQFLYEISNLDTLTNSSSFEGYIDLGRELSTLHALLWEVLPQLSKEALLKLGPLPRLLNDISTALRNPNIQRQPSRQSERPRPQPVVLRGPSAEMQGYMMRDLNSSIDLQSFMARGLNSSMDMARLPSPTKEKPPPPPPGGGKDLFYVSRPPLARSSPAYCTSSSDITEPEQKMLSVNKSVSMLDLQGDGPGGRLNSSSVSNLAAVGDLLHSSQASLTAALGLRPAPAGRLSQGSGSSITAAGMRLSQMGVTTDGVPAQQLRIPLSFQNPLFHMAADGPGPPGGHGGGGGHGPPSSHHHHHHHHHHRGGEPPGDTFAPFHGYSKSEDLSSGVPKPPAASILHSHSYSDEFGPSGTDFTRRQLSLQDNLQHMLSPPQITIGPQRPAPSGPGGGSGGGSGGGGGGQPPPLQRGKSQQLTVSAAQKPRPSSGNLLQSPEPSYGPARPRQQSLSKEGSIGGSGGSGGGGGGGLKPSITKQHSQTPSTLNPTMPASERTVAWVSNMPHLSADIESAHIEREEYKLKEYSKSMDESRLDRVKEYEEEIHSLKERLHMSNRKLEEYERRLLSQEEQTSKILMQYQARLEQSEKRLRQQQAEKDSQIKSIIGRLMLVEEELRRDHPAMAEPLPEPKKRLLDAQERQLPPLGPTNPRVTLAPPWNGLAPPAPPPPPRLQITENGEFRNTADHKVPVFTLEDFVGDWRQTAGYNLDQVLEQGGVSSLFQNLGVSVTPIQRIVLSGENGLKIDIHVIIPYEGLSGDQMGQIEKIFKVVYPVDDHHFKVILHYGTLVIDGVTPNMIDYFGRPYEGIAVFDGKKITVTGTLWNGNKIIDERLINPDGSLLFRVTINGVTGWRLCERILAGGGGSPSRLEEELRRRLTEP
Assay: cell-based or functional assay

increase in SYNGAP1 expression over the control: ≥ 2 fold
B1: FireflyLuciferase-P2A-anti-syngap1_FLX00152-Cezanne (other)
chain: MEDAKNIKKGPAPFYPLEDGTAGEQLHKAMKRYALVPGTIAFTDAHIEVDITYAEYFEMSVRLAEAMKRYGLNTNHRIVVCSENSLQFFMPVLGALFIGVAVAPANDIYNERELLNSMGISQPTVVFVSKKGLQKILNVQKKLPIIQKIIIMDSKTDYQGFQSMYTFVTSHLPPGFNEYDFVPESFDRDKTIALIMNSSGSTGLPKGVALPHRTACVRFSHARDPIFGNQIIPDTAILSVVPFHHGFGMFTTLGYLICGFRVVLMYRFEEELFLRSLQDYKIQSALLVPTLFSFFAKSTLIDKYDLSNLHEIASGGAPLSKEVGEAVAKRFHLPGIRQGYGLTETTSAILITPEGDDKPGAVGKVVPFFEAKVVDLDTGKTLGVNQRGELCVRGPMIMSGYVNNPEATNALIDKDGWLHSGDIAYWDEDEHFFIVDRLKSLIKYKGYQVAPAELESILLQHPNIFDAGVAGLPDDDAGELPAAVVVLEHGKTMTEKEIVDYVASQVTTAKKLRGGVVFVDEVPKGLTGKLDARKIREILIKAKKGGKIAVTRLKGSGATNFSLLKQAGDVEENPGPRSGTGSSGQVQLVESGGGLVQPGGSLRLSCAASGFSFSNFPMMWVRQAPGKGREWVADINQDGRNTYYADSVKGRFTISRDNAKTTVYLQMNNLNPEDTAVYYCQAIRTTTHFDSWGQGTQVTVSSGAPGSGPPSFSEGSGGSRTPEKGFSDREPTRPPRPILQRQDDIVQEKRLSRGISHASSSIVSLARSHVSSNGGGGGSNEHPLEMPICAFQLPDLTVYNEDFRSFIERDLIEQSMLVALEQAGRLNWWVSVDPTSQRLLPLATTGDGNCLLHAASLGMWGFHDRDLMLRKALYALMEKGVEKEALKRRWRWQQTQQNKESGLVYTEDEWQKEWNELIKLASSEPRMHLGTNGANCGGVESSEEPVYESLEEFHVFVLAHVLRRPIVVVADTMLRDSGGEAFAPIPFGGIYLPLEVPASQCHRSPLVLAYDQAHFSALVSMEQKENTKEQAVIPLTDSEYKLLPLHFAVDPGKGWEWGKDDSDNVRLASVILSLEVKLHLLHSYMNVKWIPLSSDAQAPLAQ

increase in SYNGAP1 expression over the control: ≥ 2 fold
B2: FireflyLuciferase-P2A-anti-syngap1_FLX00153-Cezanne (other)
chain: MEDAKNIKKGPAPFYPLEDGTAGEQLHKAMKRYALVPGTIAFTDAHIEVDITYAEYFEMSVRLAEAMKRYGLNTNHRIVVCSENSLQFFMPVLGALFIGVAVAPANDIYNERELLNSMGISQPTVVFVSKKGLQKILNVQKKLPIIQKIIIMDSKTDYQGFQSMYTFVTSHLPPGFNEYDFVPESFDRDKTIALIMNSSGSTGLPKGVALPHRTACVRFSHARDPIFGNQIIPDTAILSVVPFHHGFGMFTTLGYLICGFRVVLMYRFEEELFLRSLQDYKIQSALLVPTLFSFFAKSTLIDKYDLSNLHEIASGGAPLSKEVGEAVAKRFHLPGIRQGYGLTETTSAILITPEGDDKPGAVGKVVPFFEAKVVDLDTGKTLGVNQRGELCVRGPMIMSGYVNNPEATNALIDKDGWLHSGDIAYWDEDEHFFIVDRLKSLIKYKGYQVAPAELESILLQHPNIFDAGVAGLPDDDAGELPAAVVVLEHGKTMTEKEIVDYVASQVTTAKKLRGGVVFVDEVPKGLTGKLDARKIREILIKAKKGGKIAVTRLKGSGATNFSLLKQAGDVEENPGPRSGTGSSGQLQLVESGGGLVQPGESLRLSCAASGFTFSNYRMYWVRMAPGKGLEWVSDIDRSGTYTYYADSVKGRFAISRDNAKNTVYLQMNSLKPEDTAVYYCAADRRLIVDLTPEVYDHWGQGTQVTVSSGAPGSGPPSFSEGSGGSRTPEKGFSDREPTRPPRPILQRQDDIVQEKRLSRGISHASSSIVSLARSHVSSNGGGGGSNEHPLEMPICAFQLPDLTVYNEDFRSFIERDLIEQSMLVALEQAGRLNWWVSVDPTSQRLLPLATTGDGNCLLHAASLGMWGFHDRDLMLRKALYALMEKGVEKEALKRRWRWQQTQQNKESGLVYTEDEWQKEWNELIKLASSEPRMHLGTNGANCGGVESSEEPVYESLEEFHVFVLAHVLRRPIVVVADTMLRDSGGEAFAPIPFGGIYLPLEVPASQCHRSPLVLAYDQAHFSALVSMEQKENTKEQAVIPLTDSEYKLLPLHFAVDPGKGWEWGKDDSDNVRLASVILSLEVKLHLLHSYMNVKWIPLSSDAQAPLAQ

increase in SYNGAP1 expression over the control: ≥ 2 fold
B3: FireflyLuciferase-P2A-anti-syngap1_FLX00157-Cezanne (other)
chain: MEDAKNIKKGPAPFYPLEDGTAGEQLHKAMKRYALVPGTIAFTDAHIEVDITYAEYFEMSVRLAEAMKRYGLNTNHRIVVCSENSLQFFMPVLGALFIGVAVAPANDIYNERELLNSMGISQPTVVFVSKKGLQKILNVQKKLPIIQKIIIMDSKTDYQGFQSMYTFVTSHLPPGFNEYDFVPESFDRDKTIALIMNSSGSTGLPKGVALPHRTACVRFSHARDPIFGNQIIPDTAILSVVPFHHGFGMFTTLGYLICGFRVVLMYRFEEELFLRSLQDYKIQSALLVPTLFSFFAKSTLIDKYDLSNLHEIASGGAPLSKEVGEAVAKRFHLPGIRQGYGLTETTSAILITPEGDDKPGAVGKVVPFFEAKVVDLDTGKTLGVNQRGELCVRGPMIMSGYVNNPEATNALIDKDGWLHSGDIAYWDEDEHFFIVDRLKSLIKYKGYQVAPAELESILLQHPNIFDAGVAGLPDDDAGELPAAVVVLEHGKTMTEKEIVDYVASQVTTAKKLRGGVVFVDEVPKGLTGKLDARKIREILIKAKKGGKIAVTRLKGSGATNFSLLKQAGDVEENPGPRSGTGSSGQVQLVESGGGLVQAGASLRLSCAASERTFGHYAMGWFRQAPGKEREFVATISWKGGTTGYAHSVKGRFTISRDSAKNMVYLQMNSLKPEDTAVYYCAARNTMSGSMSSSAYPYWGQGTQVTVSSGGGGSGGGGSGGGGSGGGGSQVQLVESGGGLVQAGASLRLSCAASERTFGHYAMGWFRQAPGKEREFVATISWKGGTTGYAHSVKGRFTISRDSAKNMVYLQMNSLKPEDTAVYYCAARNTMSGSMSSSAYPYWGQGTQVTVSSGAPGSGPPSFSEGSGGSRTPEKGFSDREPTRPPRPILQRQDDIVQEKRLSRGISHASSSIVSLARSHVSSNGGGGGSNEHPLEMPICAFQLPDLTVYNEDFRSFIERDLIEQSMLVALEQAGRLNWWVSVDPTSQRLLPLATTGDGNCLLHAASLGMWGFHDRDLMLRKALYALMEKGVEKEALKRRWRWQQTQQNKESGLVYTEDEWQKEWNELIKLASSEPRMHLGTNGANCGGVESSEEPVYESLEEFHVFVLAHVLRRPIVVVADTMLRDSGGEAFAPIPFGGIYLPLEVPASQCHRSPLVLAYDQAHFSALVSMEQKENTKEQAVIPLTDSEYKLLPLHFAVDPGKGWEWGKDDSDNVRLASVILSLEVKLHLLHSYMNVKWIPLSSDAQAPLAQ

increase in SYNGAP1 expression over the control: ≥ 2 fold
B4: FireflyLuciferase-P2A-anti-syngap1_FLX00156-Cezanne (other)
chain: MEDAKNIKKGPAPFYPLEDGTAGEQLHKAMKRYALVPGTIAFTDAHIEVDITYAEYFEMSVRLAEAMKRYGLNTNHRIVVCSENSLQFFMPVLGALFIGVAVAPANDIYNERELLNSMGISQPTVVFVSKKGLQKILNVQKKLPIIQKIIIMDSKTDYQGFQSMYTFVTSHLPPGFNEYDFVPESFDRDKTIALIMNSSGSTGLPKGVALPHRTACVRFSHARDPIFGNQIIPDTAILSVVPFHHGFGMFTTLGYLICGFRVVLMYRFEEELFLRSLQDYKIQSALLVPTLFSFFAKSTLIDKYDLSNLHEIASGGAPLSKEVGEAVAKRFHLPGIRQGYGLTETTSAILITPEGDDKPGAVGKVVPFFEAKVVDLDTGKTLGVNQRGELCVRGPMIMSGYVNNPEATNALIDKDGWLHSGDIAYWDEDEHFFIVDRLKSLIKYKGYQVAPAELESILLQHPNIFDAGVAGLPDDDAGELPAAVVVLEHGKTMTEKEIVDYVASQVTTAKKLRGGVVFVDEVPKGLTGKLDARKIREILIKAKKGGKIAVTRLKGSGATNFSLLKQAGDVEENPGPRSGTGSSGQVQLVESGGGLVQPGGSLRLACAASGFTFGTHAMHWVRWAPGKGFEWVSTISSGGGGTRYADSVKGRFTISRDNAKNTVYLQMDNLKPEDTAVYYCNSPSNIANDNWGQGTQVTVSSGGGGSGGGGSGGGGSGGGGSQVQLVESGGGLVQPGGSLRLACAASGFTFGTHAMHWVRWAPGKGFEWVSTISSGGGGTRYADSVKGRFTISRDNAKNTVYLQMDNLKPEDTAVYYCNSPSNIANDNWGQGTQVTVSSGAPGSGPPSFSEGSGGSRTPEKGFSDREPTRPPRPILQRQDDIVQEKRLSRGISHASSSIVSLARSHVSSNGGGGGSNEHPLEMPICAFQLPDLTVYNEDFRSFIERDLIEQSMLVALEQAGRLNWWVSVDPTSQRLLPLATTGDGNCLLHAASLGMWGFHDRDLMLRKALYALMEKGVEKEALKRRWRWQQTQQNKESGLVYTEDEWQKEWNELIKLASSEPRMHLGTNGANCGGVESSEEPVYESLEEFHVFVLAHVLRRPIVVVADTMLRDSGGEAFAPIPFGGIYLPLEVPASQCHRSPLVLAYDQAHFSALVSMEQKENTKEQAVIPLTDSEYKLLPLHFAVDPGKGWEWGKDDSDNVRLASVILSLEVKLHLLHSYMNVKWIPLSSDAQAPLAQ
